Assays:
[1] = target: Ferredoxin:NADP+ oxidoreductase (FNR), C. reinhardtii, recombinant soluble (C. reinhardtii) (UniProt P53991)
[2] = target: Ferredoxin:NADP+ oxidoreductase (FNR), endogenous, complex-associated (C. reinhardtii (endogenous in strain cc124)) (UniProt P53991)

Ferredoxin 1 (FDX1), C. reinhardtii (natural protein)
light-dependent NADPH production rate with FDX1 relative to FDX2 (FDX1/FDX2), PSI fractions with added soluble FNR (0.5 µM), 4 µM FDX [1]: 2.6 fold | light-dependent NADPH production rate with FDX1 relative to FDX2 (FDX1/FDX2), PSI–FNR fractions (complex-associated FNR), 4 µM FDX [2]: 23 fold

— publication PMC5683061
